Assay results from paper PMC10239980, “A new portable toluidine blue/aptamer complex-on-polyethyleneimine-coated gold nanoparticles-based sensor for label-free electrochemical detection of alpha-fetoprotein”.

Molecular target: T1, Alpha-fetoprotein (AFP) (UniProt P02771 19-609)
T1 sequence: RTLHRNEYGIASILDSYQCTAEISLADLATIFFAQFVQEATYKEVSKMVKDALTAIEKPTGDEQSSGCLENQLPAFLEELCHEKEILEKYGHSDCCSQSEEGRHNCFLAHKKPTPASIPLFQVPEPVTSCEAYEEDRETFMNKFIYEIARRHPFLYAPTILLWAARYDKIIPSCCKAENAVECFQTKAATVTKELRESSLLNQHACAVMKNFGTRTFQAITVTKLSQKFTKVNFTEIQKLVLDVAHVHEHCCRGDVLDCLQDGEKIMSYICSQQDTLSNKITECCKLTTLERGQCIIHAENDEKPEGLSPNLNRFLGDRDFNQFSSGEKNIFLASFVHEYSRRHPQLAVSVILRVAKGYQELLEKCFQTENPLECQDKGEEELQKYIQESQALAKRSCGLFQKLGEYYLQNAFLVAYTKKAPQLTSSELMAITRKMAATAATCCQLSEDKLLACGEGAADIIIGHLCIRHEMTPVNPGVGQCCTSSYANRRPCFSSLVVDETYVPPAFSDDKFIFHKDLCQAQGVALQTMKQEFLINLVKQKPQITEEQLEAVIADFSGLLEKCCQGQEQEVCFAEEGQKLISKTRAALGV
Assay: electrochemical aptasensor (DPV, CV, EIS); toluidine blue, BSA-blocked PEI-AuNPs electrode; 50 ng/mL AFP lowers DPV current ca. 39 to 26 uA; 10 mM sodium phosphate buffer pH 7.0, 30 min incubation at room temperature; CV in 10 mM PBS pH 7.4 with 5 mM [Fe(CN)6]3-
Settings: protein: commercial

B1: AFP-specific aptamer (75-mer) (ssDNA)
DNA: GTGACGCTCCTAACGCTGACTCAGGTGCAGTTCTCGACTCGGTCTTGATGTGGGTCCTGTCCGTCCGAACCAATC
B1: binds.
